Molecular target: mGq fused to GFP10
Assay: BRET (mGq-GFP recruitment to Rluc-fused receptor)
Settings: n = 4, parent: est. 0.30, read off a plot

US28-Rluc (from UniProt P69332) US28-PDCT: S>A at 12 sites and T>V at 2 sites after helix 8, in the printed stretch QRLF[S>A]RDV[S>A]WYH[S>A]M[S>A]F[S>A]RR[S>A][S>A]P[S>A]RRE[T>V][S>A][S>A]D[T>V]L[S>A]DEVCRV[S>A]QIIP; residue numbers not printed
response (parental HEK-293 cells): 0.31 | response (β-arrestin 1/2-deficient (Δβarr1/2) HEK-293 cells): 0.26

Source: paper doi:10.1101/2025.06.12.659276
